Test results from publication PMC10871540.

Key:
[1] = biological target: biotinylated UNC-6ΔC (C. elegans) (UniProt P34710); assay: SPR
[2] = biological target: UNC-5 ECD displayed on yeast (C. elegans); assay: flow cytometry on cells
[3] = biological target: UNC-5 N188K ectodomain on yeast (C. elegans); assay: flow cytometry on cells
[4] = biological target: UNC-5 N18K ectodomain on yeast (C. elegans); assay: flow cytometry on cells
[5] = biological target: UNC-6ΔC (C. elegans) (UniProt P34710); assay: SEC
Chain of UNC-6ΔC (C. elegans) (P34710 22-461, stated change not applied): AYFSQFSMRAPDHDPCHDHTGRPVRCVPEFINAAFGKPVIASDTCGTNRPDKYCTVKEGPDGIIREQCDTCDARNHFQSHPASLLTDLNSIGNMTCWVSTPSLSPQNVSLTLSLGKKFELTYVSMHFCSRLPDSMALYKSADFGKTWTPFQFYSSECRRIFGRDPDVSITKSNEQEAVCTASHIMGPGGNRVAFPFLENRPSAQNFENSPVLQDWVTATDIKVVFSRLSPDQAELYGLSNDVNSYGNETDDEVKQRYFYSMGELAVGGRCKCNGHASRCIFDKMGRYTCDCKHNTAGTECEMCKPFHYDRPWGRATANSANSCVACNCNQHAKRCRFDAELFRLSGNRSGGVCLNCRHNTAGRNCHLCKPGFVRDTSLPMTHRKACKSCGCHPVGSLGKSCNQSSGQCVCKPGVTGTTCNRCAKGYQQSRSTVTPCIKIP

Chain of biotinylated UNC-6ΔC (P34710 22-461, stated change not applied): as above
Chain of biotinylated UNC-6ΔC (C. elegans) (P34710 22-461, stated change not applied): as above
Chain of UNC-5 ECD displayed on yeast (C. elegans) (Q26261 whole entry, the tested form may be a part): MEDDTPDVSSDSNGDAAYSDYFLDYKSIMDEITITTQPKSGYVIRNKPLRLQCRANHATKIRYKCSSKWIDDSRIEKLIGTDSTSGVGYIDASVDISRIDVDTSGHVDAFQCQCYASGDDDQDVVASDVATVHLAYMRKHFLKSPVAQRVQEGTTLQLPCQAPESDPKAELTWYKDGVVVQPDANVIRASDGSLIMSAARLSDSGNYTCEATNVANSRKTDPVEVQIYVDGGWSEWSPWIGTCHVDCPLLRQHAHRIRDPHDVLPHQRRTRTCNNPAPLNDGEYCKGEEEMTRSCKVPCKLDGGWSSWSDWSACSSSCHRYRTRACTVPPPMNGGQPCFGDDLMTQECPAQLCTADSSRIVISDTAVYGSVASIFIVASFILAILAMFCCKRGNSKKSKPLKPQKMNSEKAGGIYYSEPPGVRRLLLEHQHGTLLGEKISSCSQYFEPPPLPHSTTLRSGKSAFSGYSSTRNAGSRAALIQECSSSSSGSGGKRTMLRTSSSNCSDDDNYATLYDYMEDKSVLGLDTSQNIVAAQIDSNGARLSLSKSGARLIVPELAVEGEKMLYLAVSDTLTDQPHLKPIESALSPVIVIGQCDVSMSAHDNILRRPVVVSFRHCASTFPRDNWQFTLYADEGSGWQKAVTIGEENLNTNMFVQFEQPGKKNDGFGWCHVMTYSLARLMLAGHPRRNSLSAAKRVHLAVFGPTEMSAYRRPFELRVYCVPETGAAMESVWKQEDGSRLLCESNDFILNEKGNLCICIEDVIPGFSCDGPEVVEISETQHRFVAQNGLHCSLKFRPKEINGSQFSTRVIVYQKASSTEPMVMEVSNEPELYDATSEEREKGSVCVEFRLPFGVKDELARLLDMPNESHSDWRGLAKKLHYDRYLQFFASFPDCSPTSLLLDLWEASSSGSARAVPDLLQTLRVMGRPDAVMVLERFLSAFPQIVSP

Row | Substance | KD with heparin [1] [nM] | fold loss of affinity against WT UNC-5 [1] [fold] | KD with heparin [2] [nM] | Kd [3] [nM] | Kd [4] [nM] | stoichiometry N [5] | Kd [1] [nM]
1 | UNC-5 ECD R17E R70E (receptor) | 50000 to 100000 | 2 | – | – | – | – | –
2 | biotinylated UNC-6ΔC (from UniProt P34710 22-461) (ligand) | – | – | 35 | 16.4 | 8.2 | – | –
3 | UNC-5 ECD (receptor) | 1200 | – | – | – | – | 1 | 46000
